{
  "source": "patent US20030073808",
  "key": {"[1]": {"system": "ChePep-1 (PSDE coupled with the peptide having SEQ ID No. 4)"}, "[2]": {"system": "ChePep-2 (IDA coupled with a peptide having SEQ ID No. 5)"}, "[3]": {"system": "ChePep-3 (PSDE combined with a peptide having SEQ ID No. 6)"}, "[4]": {"system": "ChePep-5 (AFTA combined with a peptide having SEQ ID No. 7)"}, "[5]": {"system": "ChePep-6 (AFTA combined with a peptide having SEQ ID No. 8)"}},
  "data": [
    {"substance": "Active MMP-9 enzyme", "values": [
      {"measurement": "hydrolysis of fluoresceinated collagen by MMP-9", "setting": "[1]", "value": "prevents the enzyme from degrading fluoresceinated collagen in a dose dependent manner"},
      {"measurement": "FRET substrate peptide cleavage by MMP-9", "setting": "[2]", "value": "regulates MMP-9 in the fluorescence resonance energy transfer (FRET) assay in a dose dependent manner"},
      {"measurement": "FRET substrate peptide cleavage by MMP-9", "setting": "[3]", "value": "show nearly identical ability to regulate MMP-9 in the standard FRET assay"},
      {"measurement": "FRET substrate peptide cleavage by MMP-9", "setting": "[4]", "value": "ChePep-5 proves to be a better regulator than the IDA or the PSDE based chelating peptides"},
      {"measurement": "FRET substrate peptide cleavage by MMP-9", "setting": "[5]", "value": "ChePep-6 is an effective MMP-9 regulator at low molar stoichiometries"}
    ]}
  ]
}
